In patent US20180100026A1 (CALIFORNIA INSTITUTE FOR BIOMEDICAL RESEARCH, published 2018):
Numbering of substitutions follows the chain as printed.

B1: random anti-CD19 (FMC63) Fab FITC conjugate (Fab, V domains shown)
VH: EVKLQESGPGLVAPSQSLSVTCTVSGVSLPDYGVSWIRQPPRKGLEWLGVIWGSETTYYNSALKSRLTIIKDNSKSQVFLKMNSLQTDDTAIYYCAKHYYYGGSYAMDYWGQGTSVTVSS
VL: DIQMTQTTSSLSASLGDRVTISCRASQDISKYLNWYQQKPDGTVKLLIYHTSRLHSGVPSRFSGSGSGTDYSLTISNLEQEDIATYFCQQGNTLPYTFGGGTKLEIKR
modifications: FITC-PEG4 by NHS chemistry at the N-terminal amino group (~58% of the conjugates); FITC-PEG4 by NHS chemistry at lysines, largely K31 (~20%) and K141 (~68.4%); paragraph 560 prints positions 31 and 145
notes: Heterogeneous mixture, average FITC to antibody ratio of 2; also called random conjugate; Random (DAR 2)
B2: anti-CD19 (FMC63) Fab AB-FITC (light chain G68 and heavy chain S74) (Fab, V domains shown)
VH: B1 VH
VL: B1 VL
modifications: position 74 = pAzF conjugated with BCN-PEG4-FITC; position 68 = pAzF conjugated with BCN-PEG4-FITC
notes: Bivalent, proximal sites; also called anti-CD19 AB-FITC; LG68/HS74
B3: anti-CD19 (FMC63) Fab B-FITC (heavy chain S74) (Fab, V domains shown)
VH: B1 VH
VL: B1 VL
modifications: position 74 = pAzF conjugated with BCN-PEG4-FITC
notes: Monovalent, proximal site; also called HS74
B4: anti-CD19 (FMC63) Fab F-FITC (heavy chain K136) (Fab, V domains shown)
VH: B1 VH
VL: B1 VL
modifications: position 136 of the whole heavy chain = pAzF conjugated with BCN-PEG4-FITC
notes: Monovalent, distal site; also called HK136
B5: anti-CD19 (FMC63) Fab EF-FITC (light chain S202 and heavy chain K136) (Fab, V domains shown)
VH: B1 VH
VL: B1 VL
modifications: position 136 of the whole heavy chain = pAzF conjugated with BCN-PEG4-FITC; position 202 of the whole light chain = pAzF conjugated with BCN-PEG4-FITC
notes: Bivalent, distal sites; also called LS202/HK136
B6: anti-CD19 (FMC63) Fab D-FITC (heavy chain A121) (Fab, V domains shown)
VH: B1 VH
VL: B1 VL
modifications: position 121 of the whole heavy chain = pAzF conjugated with BCN-PEG4-FITC
notes: Monovalent, medial site; also called HA121
B7: anti-CD19 (FMC63) Fab A-FITC (light chain G68) (Fab, V domains shown)
VH: B1 VH
VL: B1 VL
modifications: position 68 = pAzF conjugated with BCN-PEG4-FITC
notes: Monovalent, proximal site; also called LG68
B8: anti-CD19 (FMC63) Fab C-FITC (light chain T109) (Fab, V domains shown)
VH: B1 VH
VL: B1 VL
modifications: position 109 of the whole light chain = pAzF conjugated with BCN-PEG4-FITC
notes: Monovalent, medial site; also called LT109
B9: anti-CD19 (FMC63) Fab E-FITC (light chain S202) (Fab, V domains shown)
VH: B1 VH
VL: B1 VL
modifications: position 202 of the whole light chain = pAzF conjugated with BCN-PEG4-FITC
notes: Monovalent, distal site; also called LS202
B10: anti-CD33 Fab (clone hM195) (Fab, V domains shown)
VH: QVQLVQSGAEVKKPGSSVKVSCKASGYTFTDYNMHWVRQAPGQGLEWIGYIYPYNGGTGYNQKFKSKATITADESTNTAYMELSSLRSEDTAVYYCARGRPAMDYWGQGTLVTVSS
VL: DIQMTQSPSSLSASVGDRVTITCRASESVDNYGISFMNWFQQKPGKAPKLLIYAASNQGSGVPSRFSGSGSGTDFTLNISSLQPDDFATYYCQQSKEVPWTFGQGTKVEIKR
B11: anti-CD33 hP67.6 AB-FITC switch (light chain G72 and heavy chain P75) (Fab, V domains shown)
VH: EVQLVQSGAEVKKPGSSVKVSCKASGYTITDSNIHWVRQAPGQSLEWIGYIYPYNGGTDYNQKFKNRATLTVDNXTNTAYMELSSLRSEDTAFYYCVNGNPWLAYWGQGTLVTVSS
VL: DIQLTQSPSTLSASVGDRVTITCRASESLDNYGIRFLTWFQQKPGKAPKLLMYAASNQGSGVPSRFSGSGSXTEFTLTISSLQPDDFATYYCQQTKEVPWSFGQGTKVEVKR
modifications: position 75 = pAzF conjugated with a cyclooctyne-PEG-FITC linker; position 72 = pAzF conjugated with a cyclooctyne-PEG-FITC linker
B12: anti-CD33 Fab (clone hP67.6) (Fab, V domains shown)
VH: B11 VH with X75P
VL: B11 VL with X72G

What was measured:
[1] = molecular target: T1, CAR-FITC (CD8 hinge), anti-FITC (FITC-E2 scFv) chimeric antigen receptor on T cells; assay: flow cytometry on anti-FITC CAR T cells, Alexa Fluor 647 anti-human IgG or anti-human kappa secondary antibody, MFI against concentration
T1 construct: FITC-E2 scFv, CD8 hinge and transmembrane region, 41BB and CD3 zeta; also called Anti FITC CAR-EC with CD8 hinge; anti-FITC CAR
Experimental: (§1) Cells were incubated with indicated switch antibodies at 4° C. for 30-60 min and washed twice with staining buffer (1% BSA in PBS). […] After several washes, samples were acquired on a BD LSR II or BD Accuri C6 and analyzed using FlowJo 7.6.2 software.
(§2) Briefly, cells were incubated with indicated switch antibodies at 4° C. for 30-60 min and washed twice with staining buffer (1% BSA in PBS). […] After several washes, samples were acquired on a BD LSR II or BD Accuri C6 and analyzed using FlowJo 7.6.2 software.

[2] = molecular target: T1, CAR-FITC (CD8 hinge), anti-FITC …; assay: flow cytometry on anti-FITC CAR-T cells
Experimental: as §1, §2

[3] = molecular target: T2, CD33 on MOLM14 cells (human, UniProt P20138 18-364); assay: flow cytometry on MOLM-14 (CD33+) cells, MFI against Fab concentration, secondary antibody alone subtracted
T2 construct: whole, on cells; also called MOLM-14 cells (CD33+)
Experimental: Binding capacity is measured through MFI. MFI of secondary antibody alone was subtracted to account for background and non-specific staining.

[4] = molecular target: T2, CD33 on MOLM14 cells; assay: cell-based or functional assay

T2 sequence (P20138 18-364): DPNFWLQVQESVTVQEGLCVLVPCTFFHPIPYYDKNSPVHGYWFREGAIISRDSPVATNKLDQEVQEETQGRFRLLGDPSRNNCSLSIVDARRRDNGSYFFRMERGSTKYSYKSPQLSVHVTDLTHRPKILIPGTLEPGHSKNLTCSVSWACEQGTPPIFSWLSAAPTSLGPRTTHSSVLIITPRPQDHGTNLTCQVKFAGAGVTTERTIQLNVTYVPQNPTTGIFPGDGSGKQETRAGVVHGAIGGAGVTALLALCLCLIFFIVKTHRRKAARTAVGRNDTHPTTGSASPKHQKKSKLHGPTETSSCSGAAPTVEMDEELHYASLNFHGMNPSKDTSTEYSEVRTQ
T1 sequence (chain, as listed by the source mutant limits assumed): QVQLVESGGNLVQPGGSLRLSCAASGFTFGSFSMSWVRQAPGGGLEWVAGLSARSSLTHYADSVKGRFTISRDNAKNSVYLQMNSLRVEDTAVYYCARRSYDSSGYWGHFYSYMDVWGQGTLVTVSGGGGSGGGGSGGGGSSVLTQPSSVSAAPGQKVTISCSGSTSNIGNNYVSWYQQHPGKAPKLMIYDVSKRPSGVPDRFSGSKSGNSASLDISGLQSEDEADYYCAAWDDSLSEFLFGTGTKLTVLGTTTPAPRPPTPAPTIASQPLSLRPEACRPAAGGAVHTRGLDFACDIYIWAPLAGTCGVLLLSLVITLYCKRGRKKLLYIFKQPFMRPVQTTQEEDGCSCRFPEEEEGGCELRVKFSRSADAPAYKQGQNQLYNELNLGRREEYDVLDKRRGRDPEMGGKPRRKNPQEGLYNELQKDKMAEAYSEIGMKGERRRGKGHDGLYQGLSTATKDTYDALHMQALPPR

Binder	EC50 [1]	also measured
B1	0.0029 nM	–
B2	0.0034 nM	–
B3	0.0091 nM	–
B4	0.0092 nM	–
B5	0.0029 nM	EC50 [2]: ~3 nM
B6	0.0095 nM	–
B7	0.0094 nM	–
B8	0.0064 nM	–
B9	0.007 nM	–
B10	–	EC50 [3]: 1800 nM
B11	–	EC50 of cytotoxicity of anti-FITC CAR-T cells against MOLM14 cells [4]: 0.0065 nM; efficacy in MOLM14 against the optimized anti-CD33 hM195 CD-FITC switch [4]: ~3 fold
B12	–	EC50 [3]: 3.96 nM
